From publication PMC7465815, “The CARF Protein MM_0565 Affects Transcription of the Casposon-Encoded cas1-solo Gene in Methanosarcina mazei Gö1” (Biomolecules, 2020) come the findings set out here.

Series [1] concerns the target T1, His6-MM_0565 (CARF-wHTH protein) (Methanosarcina mazei Gö1) (UniProt Q8PZC9).
T1 sequence: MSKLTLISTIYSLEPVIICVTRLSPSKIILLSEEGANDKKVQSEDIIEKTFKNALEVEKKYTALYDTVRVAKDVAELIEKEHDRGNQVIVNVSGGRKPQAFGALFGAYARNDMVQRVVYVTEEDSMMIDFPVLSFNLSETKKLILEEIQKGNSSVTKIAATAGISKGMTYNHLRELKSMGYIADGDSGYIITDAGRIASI
In words: competition. Conditions: MST: 25 nM labelled protein in His-tag buffer (250 mM NaH2PO4, 1.5 M NaCl, pH 8) + 1 mg/mL BSA, 0.05% Tween20, DNA from annealing buffer (50 mM TES/KOH pH 7.6 …).

The target of series [2] is T1, His6-MM_0565 (CARF-wHTH protein) (Methanosarcina mazei Gö1). In words: EMSA. Conditions: MST: 25 nM labelled protein in His-tag buffer (250 mM NaH2PO4, 1.5 M NaCl, pH 8) + 1 mg/mL BSA, 0.05% Tween20, DNA from annealing buffer (50 mM TES/KOH pH 7.6 …).
Series [3] addresses T2, His6-MM_0565 (CARF-wHTH protein) (Methanosarcina mazei Gö1, UniProt Q8PZC9 1-200).
T2 sequence: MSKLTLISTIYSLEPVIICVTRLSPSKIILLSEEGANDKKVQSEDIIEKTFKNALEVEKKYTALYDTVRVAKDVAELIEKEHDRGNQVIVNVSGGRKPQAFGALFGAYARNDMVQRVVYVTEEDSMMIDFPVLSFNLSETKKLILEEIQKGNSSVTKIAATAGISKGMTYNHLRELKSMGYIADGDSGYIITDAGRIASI
In words: MST; MST: 25 nM labelled protein in His-tag buffer (250 mM NaH2PO4, 1.5 M NaCl, pH 8) + 1 mg/mL BSA, 0.05% Tween20, DNA from annealing buffer (50 mM TES/KOH pH 7.6). Conditions: protein: recombinant, tags: N-terminal His6 (pET28a), chain copies: 2.

Series [4] deals with the molecule itself. In words: SEC; purified His6-MM_0565 on an ENrich SEC 650 column; 50 mM TES buffer pH 7.6, 300 mM KCl; 0.5 mL/min; calibrated with a gel-filtration mass standard. For orientation: Size exclusion chromatography separates by hydrodynamic size, large species first.
Series [5] concerns the molecule itself. In words: SDS-PAGE and Western blot of cell extracts (dimer band kept under denaturing conditions); M. mazei cell extracts (750 µg), cells grown under standard conditions (38.5 mM NaCl) or with 500 mM NaCl; samples boiled 5 min at 95 °C, 12% SDS-PAGE; polyclonal antibodies against MM_0565. On the technique in general: In western blotting, separated proteins are transferred to a membrane and probed.

For “AGGGCAAAAATTTCCGTTATTTGGCCAGAAAAGGCCTGAAATGAGCCCTTTTTCAGGGCTAAAATTCTTGCTGGAAAATTATCAAACCCTTTATAAATACAAGAAAAACTTCTCATACGCAGATATTCCGGTAACAGCAATCTACGCATTTTCT (double strand) [leader I-B PCR fragment]”, the binding result in series [1] and in series [2] was “binds” in each case. For “AGGGCAAAAATTTCCGTTATTTGGTCAGAAAAGGCCTGAAATGAGCCCTTTTTTGGGGCTAAAATTCTTGCTGGAAAATTATCAAACCCTTTATAAATACAAGAAAAAAAGGGTTTTTTTAGTGGTTTGGAAAC (double strand) [leader III-C PCR fragment]”, in series [2], the binding entry was “binds”.

B1: conserved leader region 1 (5' fragment, 70 nt) (dsDNA)
DNA 1: TTTTTCTTGTATTTATAAAGGGTTTGATAATTTTCCAGCAAGAATTTTAGCCCCAAAAAAGGGCTCATTT
DNA 2: AAATGAGCCCTTTTTTGGGGCTAAAATTCTTGCTGGAAAATTATCAAACCCTTTATAAATACAAGAAAAA
Broadly, the Kd is the free concentration of one partner at which half of the binding sites on the other are occupied at equilibrium, for simple one-to-one binding. As for B1, in series [3] (blunt), the Kd was determined as 960 ± 350 nM.

B2: MM_3250 (cas1-solo operon) promoter (dsDNA)
DNA 1: CCGCTCTTACTTATGTACAGAATTGAGTATAACTTTAAGTATAAGTTTGATGTATATTTTGTATATAATT
DNA 2: AATTATATACAAAATATACATCAAACTTATACTTAAAGTTATACTCAATTCTGTACATAAGTAAGAGCGG
With B2, the Kd in series [3] (blunt) turned out to be 1600 ± 400 nM.

B3: conserved leader region 2 (3' fragment) (dsDNA)
DNA 1: CAAGAATTTTAGCCCTGAAAAAGGGCTCATTTCAGGCCTTTTCTGGCCAAATAACGGAAATTTTTGCCCT
DNA 2: AGGGCAAAAATTTCCGTTATTTGGCCAGAAAAGGCCTGAAATGAGCCCTTTTTCAGGGCTAAAATTCTTG
For B3, the binding result in series [3] is reported as “no binding”.

B4: His6-MM_0565 (CARF protein MM_0565 of Methanosarcina mazei Gö1 with N-terminal His6 tag) (natural protein, UniProt Q8PZC9 1-200, looked up)
chain: MSKLTLISTIYSLEPVIICVTRLSPSKIILLSEEGANDKKVQSEDIIEKTFKNALEVEKKYTALYDTVRVAKDVAELIEKEHDRGNQVIVNVSGGRKPQAFGALFGAYARNDMVQRVVYVTEEDSMMIDFPVLSFNLSETKKLILEEIQKGNSSVTKIAATAGISKGMTYNHLRELKSMGYIADGDSGYIITDAGRIASI
notes: MM_0565 gene product of Methanosarcina mazei Gö1; N-terminal CARF domain and C-terminal winged helix-turn-helix domain; gene PCR-amplified (0.6 kbp fragment) and cloned into pET28a(+); approximately 22 kDa; Homodimer by size-exclusion chromatography; also called purified MM_0565; His6-tagged MM_0565; source: E. coli BL21-CodonPlus-RIL (plasmid pRS923, pET28a), purified (Ni-NTA agarose); not …
By stoichiometry N is commonly meant a count of units in the complex or per binding partner. On to B4, for which the “stoichiometry N” value in series [4] worked out at 2.

B5: MM_0565, endogenous in Methanosarcina mazei Gö1 (natural protein, UniProt Q8PZC9 1-200, looked up)
chain: MSKLTLISTIYSLEPVIICVTRLSPSKIILLSEEGANDKKVQSEDIIEKTFKNALEVEKKYTALYDTVRVAKDVAELIEKEHDRGNQVIVNVSGGRKPQAFGALFGAYARNDMVQRVVYVTEEDSMMIDFPVLSFNLSETKKLILEEIQKGNSSVTKIAATAGISKGMTYNHLRELKSMGYIADGDSGYIITDAGRIASI
notes: MM_0565 gene product of Methanosarcina mazei Gö1, detected in cell extracts with polyclonal antibodies against MM_0565 as bands of 25 and 50 kDa; Both a monomer band and a dimer band were seen on the denaturing gel; also called dimeric MM_0565; source: endogenous, M. mazei Gö1 cell extracts
In the case of B5, the “stoichiometry N” value in series [5] worked out at 2.

B6: cas8b promoter (CRISPR-Cas I-B operon) (dsDNA)
DNA 1: TCTATTTGCTTATTTTTATAATTATTTTTAGAAATGTATATATAATATGTTAACTATGAACCTTGATGGT
DNA 2: ACCATCAAGGTTCATAGTTAACATATTATATATACATTTCTAAAAATAATTATAAAAATAAGCAAATAGA
As to B6, the binding result in series [3] (blunt) is recorded as “no binding”.

B7: MM_0565 promoter version 1 (wt) (dsDNA)
DNA 1: AACTAAATCCCTATATCGTAAAACATTTAACCAAACCCTACAATACATGACATCTAATGT
DNA 2: ACATTAGATGTCATGTATTGTAGGGTTTGGTTAAATGTTTTACGATATAGGGATTTAGTT
In the case of B7, the Kd in series [3] (blunt) worked out at 285 ± 56 nM.
